Results from publication PMC4193804.
pKd: −log10 of the molar value.

How the values were obtained:
[1] = molecular target: HLA-DQ1 (DQA1*0102, DQB1*0502) loaded with the myelin basic protein peptide (res. 85–99) (human); experiment: SPR
[2] = molecular target: Hy.1B11 TCR with biotinylated C-terminal BirA tag (human); experiment: SPR
[3] = molecular target: HLA-DQ1 (DQA1*0102, DQB1*0502), supplied as DQ1/CLIP for peptide-binding assays (human); experiment: ELISA

Substance	pKd [2]	further results
Hy.1B11 T cell receptor (TCR), wild type, soluble	–	pKd [1]: 4.84
HLA-DQ1 (DQA1*0102, DQB1*0502) loaded with the Pseudomonas aeruginosa phosphomannomutase peptide PMM 260–274 (from UniProt P26276 260-274) (peptide-MHC)	4.24	–
MBP 85–99 analogue peptide with P6 Asn to Asp substitution	–	fold higher affinity than the WT MBP peptide [3]: 10 fold
HLA-DQ1 (DQA1*0102, DQB1*0502) loaded with the myelin basic protein peptide (res. 85–99) (peptide-MHC)	5.16	–
